Measured values as given in article PMC6070508.

How the values were obtained:
[1] = target: His-tagged IgE-Fc (human); test: SPR; sandwich: about 100 RU of His-tagged IgE-Fc captured on an 8D6 Fab surface, then a second 8D6 Fab injected at 30 uL/min; HBS-P
[2] = target: 1:1 8D6 Fab/IgE-Fc complex; test: as above

Chain of His-tagged IgE-Fc (human) (P01854 other isoform, or with tags, fused parts or gaps): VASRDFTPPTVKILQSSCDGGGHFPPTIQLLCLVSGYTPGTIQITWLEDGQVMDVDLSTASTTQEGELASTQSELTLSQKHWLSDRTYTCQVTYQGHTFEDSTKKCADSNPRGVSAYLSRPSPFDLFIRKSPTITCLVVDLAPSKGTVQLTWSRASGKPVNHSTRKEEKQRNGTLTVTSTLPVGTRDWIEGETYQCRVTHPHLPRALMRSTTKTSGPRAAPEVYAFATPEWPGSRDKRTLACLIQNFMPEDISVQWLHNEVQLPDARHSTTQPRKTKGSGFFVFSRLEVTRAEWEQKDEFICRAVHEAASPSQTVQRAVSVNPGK

B1: 8D6 Fab (Fab, V domains shown)
VH: QVQLQQSGAELAKPGASVMLSCKASGYTFNGYWMHWVKQRPGQDLEWIGYINPTTGHTEYNQKFKDKATLTADESSNTAYIELSSLTSDDSAVYYCARQEYRHSWFAYWGQGTLVTVSA
VL: DIVLTQSPASLAVSLGQRATISCKASQSVDYDGDTYMNWYHQKPGQPPKLLIYAASNLDSGIPARFSGSGSGTDFTLNIHPVEEEDAATYYCQQTNEDPWTFGGGTKLEIK
**Q.** With B1 as the binder, how does the stoichiometry N [1] read?
**A.** 2

**Q.** What about the Kd [2] of the same binder?
**A.** 0.06 nM

**Q.** And the koff [2]?
**A.** 6e-05 s⁻¹

**Q.** What about the kon [2] of the same binder?
**A.** 1e+06 M⁻¹ s⁻¹
